{"source": "paper PMC4402133", "experiment_in_all_cases": "native gel or EMSA", "key": {"[1]": {"target": "pPL-188 nascent chain (bovine) (UniProt P01239)"}, "[2]": {"target": "pPL-223 nascent chain (bovine) (UniProt P01239)"}, "[3]": {"target": "pPL^45-Zn-163 nascent chain (bovine | S. cerevisiae) (UniProt P01239)"}, "[4]": {"target": "pPL-163 nascent chain (bovine) (UniProt P01239)"}}}
{"substance": "RAMP complex C (~500 kD Sec61/62/63 complex) (from UniProt P38377 1-476; P82009 1-39; P82008 1-33; Q05052 33-445)", "values": [{"measurement": "percent of nascent chains in complex C", "setting": "[1]", "value": 2, "unit": "%"}, {"measurement": "percent of nascent chains in complex C", "setting": "[2]", "value": 5, "unit": "%"}, {"measurement": "percent of nascent chains retained in complex C after 1 hour at 24°C", "setting": "[3]", "value": 95, "unit": "%"}, {"measurement": "percent of nascent chains in complex C", "setting": "[4]", "value": 2, "unit": "%"}, {"measurement": "percent of nascent chains retained in complex C after 1 hour at 24°C", "setting": "[4]", "value": 88, "unit": "%"}]}
